Source: patent publication US20150166647A1 (VLST, published 2015)

Columns and labels:
mouse MIP-1α/CCL3 = biological target: T1, mouse MIP-1α/CCL3 (mouse, UniProt P10855 24-92); experiment: MSD electrochemiluminescence, chemokine coated at 1 µg/mL
T1 construct: also called muMIP-1α
T1 sequence: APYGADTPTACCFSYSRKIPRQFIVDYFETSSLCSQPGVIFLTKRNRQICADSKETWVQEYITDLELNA

mouse MIP-1β/CCL4 = biological target: T2, mouse MIP-1β/CCL4 (mouse, UniProt P14097 24-92); experiment: as above
T2 construct: also called muMIP-1β
T2 sequence: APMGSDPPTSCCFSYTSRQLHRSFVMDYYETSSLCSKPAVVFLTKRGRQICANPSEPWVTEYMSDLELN

mouse RANTES/CCL5 = biological target: T3, mouse RANTES/CCL5 (mouse, UniProt P30882 24-91); experiment: as above
T3 construct: also called muRANTES

I-309 = biological target: T4, I-309; experiment: MSD electrochemiluminescence assay; chemokine coated at 1 µg/mL, 18P7E as unquantitated hybridoma supernatant; background = BSA
T4 construct: also called I-309/CCL1; CCL1
T4 chemokine: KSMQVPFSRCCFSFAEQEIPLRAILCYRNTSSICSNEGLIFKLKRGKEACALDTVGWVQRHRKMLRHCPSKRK

IL-8 = biological target: T5, IL-8; experiment: as above
T5 construct: also called IL-8/CXCL8; CXCL8

SDF = biological target: T6, SDF; experiment: as above
T6 construct: also called SDF-1/CXCL12; CXCL12

Fractalkine = biological target: T7, Fractalkine; experiment: as above
T7 construct: also called Fractalkine/CX3CL1; CX3CL1
T7 chemokine: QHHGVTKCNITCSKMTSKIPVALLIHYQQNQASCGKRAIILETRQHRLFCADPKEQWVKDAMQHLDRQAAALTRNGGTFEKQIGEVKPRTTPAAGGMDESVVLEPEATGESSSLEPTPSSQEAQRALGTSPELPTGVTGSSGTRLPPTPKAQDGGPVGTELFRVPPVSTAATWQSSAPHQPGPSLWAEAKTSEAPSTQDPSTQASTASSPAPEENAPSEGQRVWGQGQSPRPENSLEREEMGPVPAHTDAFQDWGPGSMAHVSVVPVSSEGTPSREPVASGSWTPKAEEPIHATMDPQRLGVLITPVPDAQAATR

HCC-4 = biological target: T8, HCC-4; experiment: as above
T8 construct: also called HCC-4/CCL16; CCL16
T8 chemokine: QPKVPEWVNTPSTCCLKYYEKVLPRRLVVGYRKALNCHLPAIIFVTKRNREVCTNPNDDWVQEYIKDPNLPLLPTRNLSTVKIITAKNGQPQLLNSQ

MCP-2 = biological target: T9, MCP-2; experiment: as above
T9 construct: also called MCP-2/CCL8; CCL8
T9 chemokine: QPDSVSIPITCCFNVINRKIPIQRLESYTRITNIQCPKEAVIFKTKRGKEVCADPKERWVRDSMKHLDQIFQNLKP

MCP-3 = biological target: T10, MCP-3; experiment: as above
T10 construct: also called MCP-3/CCL7; CCL7

MCP-4 = biological target: T11, MCP-4; experiment: as above
T11 construct: also called MCP-4/CCL13; CCL13

Eotaxin = biological target: T12, Eotaxin; experiment: as above
T12 construct: also called Eotaxin/CCL11; CCL11

MDC = biological target: T13, MDC; experiment: as above
T13 construct: also called MDC/CCL22; CCL22
T13 chemokine: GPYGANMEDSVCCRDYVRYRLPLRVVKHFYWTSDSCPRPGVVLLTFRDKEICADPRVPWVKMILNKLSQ

ELC = biological target: T14, ELC; experiment: as above
T14 construct: also called ELC/MIP-3β/CCL19; CCL19
T14 chemokine: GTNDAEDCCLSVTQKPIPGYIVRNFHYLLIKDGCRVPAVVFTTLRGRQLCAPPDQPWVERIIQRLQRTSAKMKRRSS

human MPIF-1/CCL23 = biological target: T15, human MPIF-1/CCL23 (human, UniProt P55773 46-120); experiment: as above
T15 sequence: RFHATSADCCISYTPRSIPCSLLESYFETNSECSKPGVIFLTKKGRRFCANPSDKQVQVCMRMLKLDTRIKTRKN

human HCC-2/MIP-1δ/CCL15 = biological target: T16, human HCC-2/MIP-1δ/CCL15 (human, UniProt Q16663 46-113); experiment: as above
T16 sequence: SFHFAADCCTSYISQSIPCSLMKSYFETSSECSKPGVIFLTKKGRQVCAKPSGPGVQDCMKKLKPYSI

human HCC-1/CCL14/CCL14a = biological target: T17, human HCC-1/CCL14/CCL14a (human, UniProt Q16627 28-93); experiment: as above
T17 sequence: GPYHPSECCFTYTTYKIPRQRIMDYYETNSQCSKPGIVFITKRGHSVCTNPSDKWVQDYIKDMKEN

human PARC/CCL18 = biological target: T18, human PARC/CCL18 (human, UniProt P55774 21-89); experiment: as above
T18 sequence: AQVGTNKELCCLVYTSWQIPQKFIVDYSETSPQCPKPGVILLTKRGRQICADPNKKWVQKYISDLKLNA

human MCP-1/CCL2 = biological target: T19, human MCP-1/CCL2 (human, UniProt P13500 24-99); experiment: as above
T19 construct: also called Biotin-MCP1
T19 sequence (P13500 24-99 limits assumed): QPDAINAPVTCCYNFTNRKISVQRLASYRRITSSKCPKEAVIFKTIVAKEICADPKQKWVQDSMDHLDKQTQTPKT

T3 sequence (P30882 24-91 limits assumed): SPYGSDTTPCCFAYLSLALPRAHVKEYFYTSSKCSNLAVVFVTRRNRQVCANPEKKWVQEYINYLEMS
T6 sequence (chemokine, as listed by the source): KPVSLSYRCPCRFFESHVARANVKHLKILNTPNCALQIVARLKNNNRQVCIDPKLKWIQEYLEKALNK
T5 sequence (chemokine, as listed by the source): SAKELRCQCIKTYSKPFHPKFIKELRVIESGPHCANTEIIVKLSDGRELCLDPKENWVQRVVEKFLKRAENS
T11 sequence (chemokine, as listed by the source): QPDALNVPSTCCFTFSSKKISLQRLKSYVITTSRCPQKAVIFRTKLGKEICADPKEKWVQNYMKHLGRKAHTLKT
T12 sequence (chemokine, as listed by the source): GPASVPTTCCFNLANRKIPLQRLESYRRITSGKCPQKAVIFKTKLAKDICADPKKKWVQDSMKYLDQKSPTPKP
T10 sequence (chemokine, as listed by the source): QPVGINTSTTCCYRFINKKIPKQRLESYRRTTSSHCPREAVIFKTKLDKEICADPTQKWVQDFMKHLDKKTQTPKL

B1: monoclonal antibody 18P7E (antibody, V domains shown)
VH: QVQLKESGPGLVAPSQSLSITCTVSGFSLTGYGIHWVRQPPGKGLEWLGVIWPGGGTNYNSALMSRLNISKDNSKSQVFLKMNSLQTDDTAMYYCARGPLITTEVSMDYWGQGTSVTVSS
VL: QAVVTQESALTTSPGETVTLTCRSNTGAVTTSNYANWVQEKPDHLFTGLIGGTNNRAPGVPARFSGSLIGDKAALTITGAQTEDEAIYFCALWYSNHWVFGGGTKLTVLG
notes: also called MAb 18P7E
- binding result (mouse MIP-1α/CCL3): no binding (tested: unquantitated hybridoma supernatant)
- binding result (mouse MIP-1β/CCL4): no binding (tested: unquantitated hybridoma supernatant)
- binding result (mouse RANTES/CCL5): no binding (tested: unquantitated hybridoma supernatant)
- binding result (I-309): no binding (tested: unquantitated hybridoma supernatant)
- binding result (IL-8): no binding (tested: unquantitated hybridoma supernatant)
- binding result (SDF): no binding (tested: unquantitated hybridoma supernatant)
- binding result (Fractalkine): no binding (tested: unquantitated hybridoma supernatant)
- binding result (HCC-4): no binding (tested: unquantitated hybridoma supernatant)
- binding result (MCP-2): no binding (tested: unquantitated hybridoma supernatant)
- binding result (MCP-3): no binding (tested: unquantitated hybridoma supernatant)
- binding result (MCP-4): no binding (tested: unquantitated hybridoma supernatant)
- binding result (Eotaxin): no binding (tested: unquantitated hybridoma supernatant)
- binding result (MDC): no binding (tested: unquantitated hybridoma supernatant)
- binding result (ELC): no binding (tested: unquantitated hybridoma supernatant)
- binding result (human MPIF-1/CCL23): no binding (tested: unquantitated hybridoma supernatant)
- binding result (human HCC-2/MIP-1δ/CCL15): no binding (tested: unquantitated hybridoma supernatant)
- binding result (human HCC-1/CCL14/CCL14a): no binding (tested: unquantitated hybridoma supernatant)
- binding result (human PARC/CCL18): no binding (tested: unquantitated hybridoma supernatant)
- binding result (human MCP-1/CCL2): no binding (tested: unquantitated hybridoma supernatant)
